These results are taken from EP4772535A1 (Chia Tai Tianqing Pharmaceutical Group Co., Ltd., dated 2026).

One may read the EC50 as the midpoint of the concentration-response curve. For orientation: Kd means the free concentration of one partner at which half of the binding sites on the other are occupied at equilibrium, for simple one-to-one binding. By koff is commonly meant a measure of how fast the partners let go of each other. For orientation: kon means a measure of how fast the partners come together.

In experiment [1] the target is T1, ROR1 naturally expressed on human tumor cell lines (A549, Jeko-1, SW620, PA-1) (human, UniProt Q01973 30-937).
T1 construct: whole, on cells; also called cells expressing ROR1
In words: FACS on PA-1 cells naturally expressing ROR1.

Experiment [2] concerns the target T2, human ROR1 on stably transfected cells (NCI-H1993-ROR1, MDA-MB-468-ROR1, NCI-H1975-ROR1, 293T-ROR1-NF-kB) (human, UniProt Q01973 30-937). In words: cell-based or functional assay.
The target of experiment [3] is T1, ROR1 naturally expressed on human tumor …. As to the kind of experiment: cell-based or functional assay.
For experiment [4] the target is unchanged. In words: FACS on SW620 cells naturally expressing ROR1.
For experiment [5] the target is unchanged. In words: FACS on Jeko-1 cells naturally expressing ROR1.
Experiment [6] addresses T2, human ROR1 on stably transfected cells …. As to the kind of experiment: cell-based or functional assay. This is another data set of the same source.
The target of experiment [7] is T3, human/cynomolgus monkey ROR1 protein (Acro Biosystems, Cat. No.: RO1-H522y) (human/cynomolgus monkey, UniProt Q01973 30-403).
T3 construct: Bought SPR analyte
As to the kind of experiment: SPR (Biacore), antibody captured on anti-hIgG CM5 chip, ROR1 protein as analyte, method of Example 5. A general note: Surface plasmon resonance follows binding to a sensor surface in real time, without labels.

Experiment [8] deals with T1, ROR1 naturally expressed on human tumor …. In words: FACS on SW620 cells naturally expressing ROR1. The source holds these as a separate data set.
Experiment [9] has the same target. As to the kind of experiment: FACS on PA-1 cells naturally expressing ROR1. This is another data set of the same source.
For experiment [10] the target is unchanged. As to the kind of experiment: FACS on Jeko-1 cells naturally expressing ROR1. This is another data set of the same source.
Experiment [11] shares this target. As to the kind of experiment: FACS on SW620 cells naturally expressing ROR1. This is another data set of the same source.
The target is the same in experiment [12]. In words: FACS on Jeko-1 cells naturally expressing ROR1. This is another data set of the same source.
The target is the same in experiment [13]. In words: FACS on Jeko-1 cells naturally expressing ROR1. This is another data set of the same source.
Experiment [14] has the same target. In words: FACS on PA-1 cells naturally expressing ROR1. This is another data set of the same source.
Experiment [15] deals with T3, human/cynomolgus monkey ROR1 protein …. In words: SPR (Biacore), antibody captured on anti-hIgG CM5 chip, ROR1 protein as analyte, 1:1 model.
The target of experiment [16] is T1, ROR1 naturally expressed on human tumor …. In words: FACS on SW620 cells naturally expressing ROR1. This is another data set of the same source.
The target is the same in experiment [17]. In words: FACS on A549 cells naturally expressing ROR1.

T3 sequence (Q01973 30-403 limits assumed): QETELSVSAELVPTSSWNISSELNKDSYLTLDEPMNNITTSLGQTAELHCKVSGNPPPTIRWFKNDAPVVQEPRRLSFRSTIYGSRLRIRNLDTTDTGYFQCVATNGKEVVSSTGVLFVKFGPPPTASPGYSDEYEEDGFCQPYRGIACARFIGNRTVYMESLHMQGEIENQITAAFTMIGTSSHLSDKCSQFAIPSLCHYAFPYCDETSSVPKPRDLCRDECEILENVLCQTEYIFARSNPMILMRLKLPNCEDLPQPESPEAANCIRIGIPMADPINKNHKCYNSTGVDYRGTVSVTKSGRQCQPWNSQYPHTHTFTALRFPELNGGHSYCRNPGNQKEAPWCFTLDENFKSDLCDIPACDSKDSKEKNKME
T2 sequence (Q01973 30-937 limits assumed): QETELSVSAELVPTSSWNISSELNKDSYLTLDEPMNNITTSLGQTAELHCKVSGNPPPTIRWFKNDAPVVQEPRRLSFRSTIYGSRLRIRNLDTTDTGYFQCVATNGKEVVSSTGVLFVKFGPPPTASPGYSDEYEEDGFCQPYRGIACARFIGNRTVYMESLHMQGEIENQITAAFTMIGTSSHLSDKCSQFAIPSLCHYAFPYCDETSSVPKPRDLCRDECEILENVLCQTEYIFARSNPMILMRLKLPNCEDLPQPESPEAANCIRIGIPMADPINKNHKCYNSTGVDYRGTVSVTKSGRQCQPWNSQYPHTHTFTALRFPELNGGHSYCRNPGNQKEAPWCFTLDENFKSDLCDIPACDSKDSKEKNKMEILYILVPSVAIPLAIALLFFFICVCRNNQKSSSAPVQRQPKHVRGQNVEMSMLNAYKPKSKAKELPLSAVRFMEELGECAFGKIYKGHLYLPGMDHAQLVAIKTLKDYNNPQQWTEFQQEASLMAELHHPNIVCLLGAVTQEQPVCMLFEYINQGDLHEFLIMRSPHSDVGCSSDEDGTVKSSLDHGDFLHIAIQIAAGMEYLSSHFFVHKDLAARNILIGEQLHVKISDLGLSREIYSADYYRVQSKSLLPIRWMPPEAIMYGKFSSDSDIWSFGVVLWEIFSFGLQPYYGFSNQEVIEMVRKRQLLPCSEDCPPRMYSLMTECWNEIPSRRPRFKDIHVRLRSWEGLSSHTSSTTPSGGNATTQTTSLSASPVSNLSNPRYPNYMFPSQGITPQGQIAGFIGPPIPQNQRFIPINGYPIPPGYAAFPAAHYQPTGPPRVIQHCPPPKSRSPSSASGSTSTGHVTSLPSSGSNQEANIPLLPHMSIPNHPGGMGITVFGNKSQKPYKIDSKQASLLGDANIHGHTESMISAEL
T1 sequence (Q01973 30-937): as the sequence (Q01973 30-937 limits assumed) above

B1: hz135A2B10-1.1 (antibody, human IgG1, kappa, V domains shown)
VH: QVQLVESGGGLVQPGGSLRLSCAASGFAFSTYGMAWVRQAPGKGLEWVASIHKGGFSTYYPDNVKGRFTISRDNAKNSLYLQMNSLRAEDTAVYYCARHDWDGAMDYWGQGTLVTVSS
VL: DIQMTQSPSSLSASVGDRVTITCKASQDINSYLNWYQQKPGKAPKTLIYRANRLVDGVPSRFSGSGSGQDYTLTISSLQPEDFATYYCLQFDEFPYTFGQGTKVEIKR
notes: Humanized, human IgG1/kappa
Consider B1, for which, in experiment [1], the EC50 came out at 0.166 nM and the “Top (MFI)” value was found to be 250000 MFI. Besides, the “Internalization EC50 (nM), NCI-H1975-ROR1 cells, pH-dependent endocytosis reagent, FACS” value in [2] was 14.9 nM. Besides, the “ADCC reporter gene assay EC50 (nM), PA-1 target cells, recombinant Jurkat effector cells” value (“ADCC reporter gene assay EC50 (nM)” for short) in experiment [3] was 0.13 nM. Moreover, in experiment [4], the response was half-maximal at 0.022 nM (EC50) and the “Top (MFI)” value was 30300 MFI. Further, in experiment [5], the EC50 was 0.015 nM and the “Top (MFI)” value is 88300 MFI. In experiment [6], the “Internalization EC50 (nM), MDA-MB-468-ROR1 cells, pH-dependent endocytosis reagent, FACS” value was determined as 1.39 nM and the “Internalization EC50 (nM), NCI-H1993-ROR1 cells, pH-dependent endocytosis reagent, FACS” value was 1.16 nM. Moreover, in experiment [7], the Kd turned out to be 0.527 nM, the koff was 0.00051 s⁻¹ and the kon was 968000 M⁻¹ s⁻¹.

B2: hz29H5D8-3.2 (antibody, human IgG1, kappa, V domains shown)
VH: QVQLVQSGAEVKKPGSSVKVSCKASGYTFTNYGISWVRQAPGQGLEWMGEIYPRSVNTYYSAKFKGRVTITADKSTSTAYMELSSLRSEDTAVYYCARHYYGSSLDYWGQGTLVTVSS
VL: DIQMTQSPSSLSASVGDRVTITCITSSDIEDDMNWYQQKPGKAPKLLISEGNSLRPGVPSRFSSSGYGTDFTFTISSLQPEDIATYYCLQSDNIFTFGQGTKVEIKR
notes: Humanized, human IgG1/kappa
As to B2, the “Internalization EC50 (nM), NCI-H1975-ROR1 cells, pH-dependent endocytosis reagent, FACS” value in experiment [2] was found to be 5.19 nM. In experiment [8], the EC50 was 0.01 nM and the “Top (MFI)” value was 30700 MFI. Moreover, the “ADCC reporter gene assay EC50 (nM)” value in experiment [3] came out at 0.06 nM. Further, in experiment [9], the EC50 was 0.087 nM and the “Top (MFI)” value was found to be 244000 MFI. Further, in experiment [6], the “Internalization EC50 (nM), MDA-MB-468-ROR1 cells, pH-dependent endocytosis reagent, FACS” value was found to be 0.92 nM and the “Internalization EC50 (nM), NCI-H1993-ROR1 cells, pH-dependent endocytosis reagent, FACS” value is 1.18 nM. Also, in experiment [10], the EC50 was found to be 0.012 nM and the “Top (MFI)” value is 89000 MFI. In [7], the affinity, expressed as Kd, was 0.197 nM; the koff amounted to 0.000354 s⁻¹; the kon came out at 1.79e+06 M⁻¹ s⁻¹.

B3: UC-961 (antibody, V domains shown)
VH: QVQLQESGPGLVKPSQTLSLTCTVSGYAFTAYNIHWVRQAPGQGLEWMGSFDPYDGGSSYNQKFKDRLTISKDTSKNQVVLTMTNMDPVDTATYYCARGWYYFDYWGHGTLVTVSS
VL: DIVMTQTPLSLPVTPGEPASISCRASKSISKYLAWYQQKPGQAPRLLIYSGSTLQSGIPPRFSGSGYGTDFTLTINNIESEDAAYYFCQQHDESPYTFGEGTKVEIK
Turning to B3, the EC50 is 0.024 nM in experiment [11]; 0.127 nM in experiment [1]; 0.019 nM in experiment [12]; 0.025 nM in experiment [8]; 0.019 nM in [13]; 0.127 nM in [14]. Further, the EC50 stood at 0.025 nM in experiment [4]; 0.019 nM in experiment [5]; 0.173 nM in [9]; 0.025 nM in experiment [16]; 0.021 nM in experiment [10]; 0.035 nM in experiment [17]. For the same molecule, the “Top (MFI)” value in experiment [11] worked out at 23900 MFI; in [1], 232000 MFI; in experiment [12] it was 83200 MFI; in experiment [8] it was 26500 MFI; in [13], 66100 MFI; in experiment [14], 232000 MFI. In addition, the “Top (MFI)” value in experiment [4] was 26500 MFI; in experiment [5], 83200 MFI; in experiment [9] it was 235000 MFI; in experiment [16], 26500 MFI; in [10], 91700 MFI; in experiment [17] it was 75700 MFI. Also, the “Internalization EC50 (nM), NCI-H1975-ROR1 cells, pH-dependent endocytosis reagent, FACS” value in experiment [2] is 17.7 nM. Moreover, the “ADCC reporter gene assay EC50 (nM)” value in [3] amounted to 0.27 nM. Besides, the Kd worked out at 20.6 nM in experiment [15] and 1.17 nM in [7]. The koff in [15] is 0.0273 s⁻¹; in [7] it was 0.0018 s⁻¹. The figures for the kon in experiment [15] and in [7] were 1.33e+06 M⁻¹ s⁻¹ and 1.54e+06 M⁻¹ s⁻¹, respectively. In addition, the “Internalization EC50 (nM), MDA-MB-468-ROR1 cells, pH-dependent endocytosis reagent, FACS” value in experiment [6] amounted to 2.15 nM. Also, the “Internalization EC50 (nM), NCI-H1993-ROR1 cells, pH-dependent endocytosis reagent, FACS” value in experiment [6] was determined as 2.06 nM.
